Measurements: patent US20200399386A1 (CELGENE, published 2020)

T1: human TNFRSF12A (human, UniProt Q9NP84 28-129)
T1 construct: whole, on cells; also called TWEAKR
T1 sequence (looked up): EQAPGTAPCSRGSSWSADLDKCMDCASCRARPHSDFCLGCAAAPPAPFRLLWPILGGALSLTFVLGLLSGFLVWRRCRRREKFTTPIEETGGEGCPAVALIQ

T2: human BCMA (human, UniProt Q02223 1-184)
T2 construct: whole, on cells; Transfected (C6-BCMA) and endogenous (myeloma lines) forms are treated as the same protein on cells; also called B-cell maturation antigen; TNFRSF17
T2 sequence (looked up): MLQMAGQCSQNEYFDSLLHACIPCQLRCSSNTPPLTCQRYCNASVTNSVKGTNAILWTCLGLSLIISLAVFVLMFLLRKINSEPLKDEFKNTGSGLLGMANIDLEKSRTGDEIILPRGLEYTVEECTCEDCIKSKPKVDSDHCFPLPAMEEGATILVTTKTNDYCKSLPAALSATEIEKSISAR

T3: TACI (UniProt O14836 1-293, limits assumed)
T3 construct: whole, on cells
T3 sequence (looked up): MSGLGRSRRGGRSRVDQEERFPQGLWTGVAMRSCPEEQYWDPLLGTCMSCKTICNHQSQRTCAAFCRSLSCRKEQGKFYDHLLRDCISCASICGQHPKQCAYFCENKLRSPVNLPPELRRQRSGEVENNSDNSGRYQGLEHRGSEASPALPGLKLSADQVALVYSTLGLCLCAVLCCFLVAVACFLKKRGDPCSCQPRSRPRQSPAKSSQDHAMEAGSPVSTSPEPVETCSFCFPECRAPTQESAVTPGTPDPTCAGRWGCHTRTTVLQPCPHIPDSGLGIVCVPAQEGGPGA

T4: BAFF receptor (UniProt Q96RJ3 1-184, limits assumed)
T4 construct: whole, on cells
T4 sequence (looked up): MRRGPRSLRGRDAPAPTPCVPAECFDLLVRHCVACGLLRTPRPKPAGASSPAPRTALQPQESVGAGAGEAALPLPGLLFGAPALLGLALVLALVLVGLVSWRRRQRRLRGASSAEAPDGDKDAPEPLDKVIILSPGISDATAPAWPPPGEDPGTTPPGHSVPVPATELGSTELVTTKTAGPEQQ


Key:
[1] = molecular target: T1, human TNFRSF12A; experiment: flow cytometry on Hek293 cells stably transfected with human TNFRSF12A
Excerpt: (§1) FACS Analysis: FACs antibodies used in this study include: 1) LS-C106982-100 Mouse Monoclonal to Human TNFRSF12A-R-Phycoerythrin (PE) (LifeSpan BioSciences, Inc.); 2) EM901 has been previously characterized as a BCMA-binding antibody (Mab42; International Application Number WO2017/021450); 3) Ebiosciences anti-human IgG Fey-specific, labeled with PE; 4) Human IgG isotype control; 5) Anti-TACI antibody [1A1](Abcam); 6) BAFF Receptor antibody 8A7 (ThermoFisher); 7) BCMA antibody 19F2 (BioLegend). Each cell type (75,000 cells/well) was incubated with primary antibodies in FACs buffer (PBS containing 0.2% BSA) for 25 min in a 96 well plate. Cells were washed once with FACs buffer and incubated with 1:100 dilution secondary antibody for 25 min. After washing once, cells were fixed for 10 min with 1% paraformaldehyde, washed with FACs buffer and resuspended in 100 μL FACs buffer. Labeled cells were analyzed using an Attune NxT Flow Cytometer and data processed using FlowJo 10.0.8r1 (FLOWJO LLC), according to the manufacturer's instructions.
The reactivity of each antibody was monitored by FACs. An anti-TNFRSF12A antibody stained Hek293-TNFRSF12A cells, indicative of TNFRSF12A expression. […] Geometric means quantifying these binding interactions are shown (FIG. 3).

[2] = molecular target: T2, human BCMA; experiment: flow cytometry on C6 cells stably transfected with human BCMA, 0.4 ug/ml antibody
Excerpt: as §1
(§2) The reactivity of each antibody was monitored by FACs. […] Geometric mean values quantifying these binding interactions are included (FIG. 2).

[3] = molecular target: T2, human BCMA; experiment: flow cytometry on NCIH929 cells
Excerpt: as §1
The reactivity of each mAb was monitored by FACs. The EM901 antibody, that recognizes BCMA, robustly bound NCIH929 cells. […] Geometric means quantifying these binding interactions are shown (FIG. 4).

[4] = molecular target: T3, TACI; experiment: flow cytometry, dose response on NUDHL1 cells
Excerpt: as §1
(§3) The reactivity of each mAb was monitored by FACs. […] Geometric means quantifying these binding interactions are shown (FIG. 5).

[5] = molecular target: T4, BAFF receptor; experiment: flow cytometry, dose response on NUDHL1 cells
Excerpt: as §1, §3

[6] = molecular target: T2, human BCMA; experiment: flow cytometry on C6 cells expressing human BCMA
Excerpt: as §1, §2

| Binder | binding result [1] | binding result [2] | binding result [3] | binding result [4] | binding result [5] | binding result [6] |
| --- | --- | --- | --- | --- | --- | --- |
| 319883 (antibody, IgG1, V domains shown) VH: QLQLQESGPGLVKPSDTLSLTCTVSGGSISSSNSYWGWIRQSPGRGLEWIGRIYYSGITHYNPSLKSRVTISVDTSKNQFSLKLSSVTAADTAVYYCASPYKWNDGNFFGWGQGTLVTVSS VL: not shown | no binding (tested: 0.4 ug/ml) | binds | – | – | – | – |
| 320199 (antibody, IgG1, V domains shown, also called human IgG antibody 320199) VH: QLQLQESGPGLVKPSETLSLTCTVSGGSISSSNSYWGWIRQSPGRGLEWIGRIYYSGITHYNPSLKSRVTISVDTSKNQFSLKLSSVTAADTAVYYCASPYKWNDGNFFGWGQGTLVTVSS VL: not shown | no binding (tested: 0.4 ug/ml) | binds | – | – | – | – |
| 319966 (antibody, IgG1, V domains shown, also called human IgG antibody 319966) VH: QLQLQESGPGLVKPSETLSLTCTVSGSSISRSNYYWGWIRQPPGKGLEWIGTFYYSGTTYYNPSLKSRVTISEDTSKKQLSLNLRSVTAADTAVYYCARPSGYTTSWGQGTLVTVSS VL: not shown | no binding (tested: 0.4 ug/ml) | – | binds | – | – | – |
| 320262 (antibody, IgG1, V domains shown) VH: QLQLQESGPGLVKPSETLSLTCTVSGGSISNSNYYWGWIRQPPGKGLEWIGNIYYSGRTYYTPSLKSRVTISEDTSKNQFSLKVRSVTVADTGVYYCARPDYYGSGTIAWGQGTLVTVSS VL: not shown | no binding (tested: 0.4 ug/ml) | – | – | no binding | no binding | binds |
| 320111 (antibody, IgG1, V domains shown) VH: QLPLQESGPGLVKPSETLSLTCTVSGGSIRSSSYYWGWIRQPPGKGLEWIGTIYYSGSTYYNPSLKSRVTISVDTSKNQLSLKLSSVTAADTAVYYCARPYYDSSGYYYYWGQGTLVTVSS VL: not shown | no binding (tested: 0.4 ug/ml) | – | binds | no binding | no binding | – |
